Molecular target: wild type p53 (human cells) (human) (UniProt P04637)
Experiment: cell-based or functional assay

In the case of “p28^ING1 (alternative splice variant of human ING1)”, the WAF1 mRNA level in HT1080 cells (Northern blot) is reported as 4 to 6 times.

Source: patent US20030073084A1
